Targets include RhD305.181E06; RhD162.119G12; RhD202.158E07.
Holding throughout (experiment): ELISA, biotinylated peptide on streptavidin plate
In general terms: ELISA stands for enzyme-linked immunosorbent assay.

Primed or numbered codes have the meaning given here. No end group written: not given here. Biotin′ = not defined here

B1: PEP305 (peptide)
peptide: CTTLLHFLC
modifications: coupled to Biotin at the C-terminus
As to B1, in the assay with RhD305.181E06, the signal-to-noise ratio was 10.

B2: PEP162 (peptide)
peptide: CMGYGPRMC-{Biotin′}
modifications: cysteine pairing not given here
Take B2: the signal-to-noise ratio in the assay with RhD162.119G12 came to 10.

B3: PEP202 (peptide)
peptide: CAPRNPYEC-{Biotin′}
modifications: cysteine pairing not given here
As for B3, the signal-to-noise ratio in the assay with RhD202.158E07 is 10.

(Values after patent US20080131882A1.)
